Test results published in patent CN118388640A (CHENZHOU NO 1 PEOPLES HOSPITAL, dated 2024).

Molecular target: T1, SARS-CoV-2 Omicron BA.1突变株 S蛋白 (Sino Biological，货号:40589-V08B33) (SARS-CoV-2 Omicron BA.1突变株)
T1 construct: also called Omicron BA.1 S蛋白
Assay: ELISA, S protein coated, antibody titrated from 10 μg/mL

B1: 抗新型冠状病毒SARS-CoV-2的广谱抗体(VSM12-37) (antibody, V domains shown)
VH: EVQLVESGGGLVQPGGSLRLSCAVSGFTVSSNYMSWVRQAPGKGLEWVSLIYSGGSTYYADSVKGRFTVSRDRSKNTLYLQMNSLRAEDTALYYCARDNPRVGSNYWGQGTLVTVSS
VL: DIQMTQSPSSLSASVGDRVTITCQASQDINNYLNWYQQKPGKAPKLLIYDASNLEAGVPSRFSGSGSGTDFTFTISSLQPEDIATYYCQQCDNVPLTFGGGTKVEIKR
notes: also called VSM12-37抗体
EC50: > 5 µg/mL
